In PMC10696041 (2023) one finds koff and Kd data, which are given here for two molecules.

For orientation: koff means the rate constant with which the complex falls apart. In general, Kd refers to the free concentration of one partner at which half of the binding sites on the other are occupied at equilibrium, for simple one-to-one binding.

The target of test [1] is T1, procollagen C-proteinase enhancer-2 with N-terminal 6His-tag (human, UniProt Q9UKZ9 24-415).
T1 chain: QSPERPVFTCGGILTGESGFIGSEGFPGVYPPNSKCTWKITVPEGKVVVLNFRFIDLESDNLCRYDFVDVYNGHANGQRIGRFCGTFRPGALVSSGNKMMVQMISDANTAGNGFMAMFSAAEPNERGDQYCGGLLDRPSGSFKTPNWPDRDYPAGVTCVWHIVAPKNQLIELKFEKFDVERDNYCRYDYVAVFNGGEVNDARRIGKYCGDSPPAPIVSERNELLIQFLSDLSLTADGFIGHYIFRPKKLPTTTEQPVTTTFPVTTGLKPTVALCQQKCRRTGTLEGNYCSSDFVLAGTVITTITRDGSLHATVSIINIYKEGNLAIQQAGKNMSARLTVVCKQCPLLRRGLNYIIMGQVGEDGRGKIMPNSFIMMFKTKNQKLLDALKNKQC
The test can be described thus: SPR; heterogeneous ligand model, kd1. For orientation: In SPR one partner is held on a chip, and binding of the other changes the refractive index at the surface.

Test [2] deals with T1, procollagen C-proteinase enhancer-2 …. The test can be described thus: SPR; heterogeneous ligand model, KD1 (Rmax1 42%).
Test [3] has the same target. Nature of the test: SPR; heterogeneous ligand model, second site KD2 (Rmax2 58%).
For test [4] the target is unchanged. Nature of the test: SPR; heterogeneous ligand model, second site kd2.
Test [5] has the same target. Nature of the test: SPR; steady-state fit.
Test [6] concerns the target T2, bone morphogenetic protein-1 (human, UniProt P13497-2 121-730).
T2 chain: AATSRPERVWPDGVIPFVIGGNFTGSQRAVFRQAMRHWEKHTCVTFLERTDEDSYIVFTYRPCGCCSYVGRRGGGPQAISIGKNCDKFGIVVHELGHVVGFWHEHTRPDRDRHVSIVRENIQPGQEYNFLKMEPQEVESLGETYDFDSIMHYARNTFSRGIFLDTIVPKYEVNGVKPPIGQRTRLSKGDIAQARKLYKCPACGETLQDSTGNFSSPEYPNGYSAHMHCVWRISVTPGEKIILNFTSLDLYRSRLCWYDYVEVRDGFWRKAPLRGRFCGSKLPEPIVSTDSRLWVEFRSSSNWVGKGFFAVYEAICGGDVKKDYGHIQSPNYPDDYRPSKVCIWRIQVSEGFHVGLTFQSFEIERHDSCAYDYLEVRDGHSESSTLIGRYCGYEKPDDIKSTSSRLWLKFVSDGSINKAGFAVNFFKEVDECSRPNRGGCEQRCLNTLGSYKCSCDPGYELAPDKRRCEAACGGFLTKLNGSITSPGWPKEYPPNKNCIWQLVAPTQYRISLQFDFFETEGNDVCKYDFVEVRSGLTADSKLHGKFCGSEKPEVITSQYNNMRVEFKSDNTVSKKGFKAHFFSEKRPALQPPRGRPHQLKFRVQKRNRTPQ
The test can be described thus: SPR; heterogeneous ligand model, kd1.

Test [7] addresses T2, bone morphogenetic protein-1. Nature of the test: SPR; heterogeneous ligand model, second site KD2 (Rmax2 86%).
For test [8] the target is unchanged. The test can be described thus: SPR; heterogeneous ligand model, KD1 (Rmax1 14%).
Test [9] shares this target. Nature of the test: SPR; heterogeneous ligand model, second site kd2.
Test [10] shares this target. The test can be described thus: SPR; steady-state fit.

B1: BMP-1[catCUB1CUB2] (domain or fragment)
chain: AATSRPERVWPDGVIPFVIGGNFTGSQRAVFRQAMRHWEKHTCVTFLERTDEDSYIVFTYRPCGCCSYVGRRGGGPQAISIGKNCDKFGIVVHELGHVVGFWHEHTRPDRDRHVSIVRENIQPGQEYNFLKMEPQEVESLGETYDFDSIMHYARNTFSRGIFLDTIVPKYEVNGVKPPIGQRTRLSKGDIAQARKLYKCPACGETLQDSTGNFSSPEYPNGYSAHMHCVWRISVTPGEKIILNFTSLDLYRSRLCWYDYVEVRDGFWRKAPLRGRFCGSKLPEPIVSTDSRLWVEFRSSSNWVGKGFFAVYEAICGGDVKKDYGHIQSPNYPDDYRPSKVCIWRIQVSEGFHVGLTFQSFEIERHDSCAYDYLEVRDGHSESSTLIGRYCGYEKPDDIKSTSSRLWLKFVSDGSINKAGFAVNFFK
In the case of B1, the koff in test [1] turned out to be 0.0024 s⁻¹; in test [4], 0.03 s⁻¹. The Kd was 1.84 nM in [2], 66 nM in test [3] and 24 nM in [5].

B2: CUB2NTR region of PCPE-2 (domain or fragment)
chain: CGGLLDRPSGSFKTPNWPDRDYPAGVTCVWHIVAPKNQLIELKFEKFDVERDNYCRYDYVAVFNGGEVNDARRIGKYCGDSPPAPIVSERNELLIQFLSDLSLTADGFIGHYIFRPKKLPTTTEQPVTTTFPVTTGLKPTVALCQQKCRRTGTLEGNYCSSDFVLAGTVITTITRDGSLHATVSIINIYKEGNLAIQQAGKNMSARLTVVCKQCPLLRRGLNYIIMGQVGEDGRGKIMPNSFIMMFKTKNQKLLDALKNKQC
With B2, the koff in test [6] stood at 0.005 s⁻¹; in test [9] it was 0.198 s⁻¹. The Kd in [7] is 26.6 nM; in test [8], 6.29 nM; in test [10], 52 nM.
